What was measured:
[1] = molecular target: GST-tagged SUMO-2 (UniProt P61956); experiment: pull-down; as the plate assay, equal cpm of radiolabeled protein per well, eluted protein counted by liquid scintillation; mean of three experiments, compared with GST alone
[2] = molecular target: GST-tagged SUMO-2(x3); experiment: as above
GST-tagged SUMO-2(x3), sequence (main, as listed by the source): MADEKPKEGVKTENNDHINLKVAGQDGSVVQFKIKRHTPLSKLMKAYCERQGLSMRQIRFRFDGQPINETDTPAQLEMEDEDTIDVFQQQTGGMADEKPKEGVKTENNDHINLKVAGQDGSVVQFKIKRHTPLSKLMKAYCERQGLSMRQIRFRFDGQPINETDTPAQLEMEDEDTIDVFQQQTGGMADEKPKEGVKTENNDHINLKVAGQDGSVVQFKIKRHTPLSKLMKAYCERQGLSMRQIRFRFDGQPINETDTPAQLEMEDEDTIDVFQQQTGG

pyruvate kinase fused with a single MYM-type zinc finger of ZNF261 (domain or fragment), sequence (Q14202 327-738): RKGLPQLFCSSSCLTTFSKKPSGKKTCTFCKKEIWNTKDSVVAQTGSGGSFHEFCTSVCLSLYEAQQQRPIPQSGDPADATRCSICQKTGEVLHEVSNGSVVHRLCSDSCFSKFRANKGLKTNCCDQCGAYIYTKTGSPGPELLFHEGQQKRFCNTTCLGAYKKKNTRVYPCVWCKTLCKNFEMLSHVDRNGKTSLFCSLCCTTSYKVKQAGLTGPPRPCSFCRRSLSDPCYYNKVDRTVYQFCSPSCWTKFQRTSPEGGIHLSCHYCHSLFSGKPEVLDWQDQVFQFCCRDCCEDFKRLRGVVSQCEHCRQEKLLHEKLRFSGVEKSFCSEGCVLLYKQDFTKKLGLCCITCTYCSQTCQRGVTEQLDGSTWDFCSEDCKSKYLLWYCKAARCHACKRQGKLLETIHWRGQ
pyruvate kinase fused with the first two MYM-type zinc fingers of ZNF261 (domain or fragment), sequence (Q14202 327-738): as above

Substance	fold increase in binding compared to GST alone [1]	fold increase in binding compared to GST alone [2]	fold increase in binding over the single-finger fusion [1]	fold increase in binding over the single-finger fusion [2]
pyruvate kinase fused with a single MYM-type zinc finger of ZNF261 (domain or fragment)	1.5 fold	3 fold		
pyruvate kinase fused with the first two MYM-type zinc fingers of ZNF261 (domain or fragment)			> 2 fold	> 2 fold

Source: paper PMC4136804
